For this assay, the target named is recombinant mouse integrin αvβ3 (R&D Systems, 7889-AV-050) (mouse) (UniProt P43406). The assay can be described thus: SPR, mutant ICOSL immobilised, αvβ3 as analyte, 0.2 mM Ca2+ and 0.1 mM Mg2+, steady-state affinity fit.
Sequence of recombinant mouse integrin αvβ3 (R&D Systems, 7889-AV-050) (mouse) (P43406 31-988 limits assumed, chain 1 of 2): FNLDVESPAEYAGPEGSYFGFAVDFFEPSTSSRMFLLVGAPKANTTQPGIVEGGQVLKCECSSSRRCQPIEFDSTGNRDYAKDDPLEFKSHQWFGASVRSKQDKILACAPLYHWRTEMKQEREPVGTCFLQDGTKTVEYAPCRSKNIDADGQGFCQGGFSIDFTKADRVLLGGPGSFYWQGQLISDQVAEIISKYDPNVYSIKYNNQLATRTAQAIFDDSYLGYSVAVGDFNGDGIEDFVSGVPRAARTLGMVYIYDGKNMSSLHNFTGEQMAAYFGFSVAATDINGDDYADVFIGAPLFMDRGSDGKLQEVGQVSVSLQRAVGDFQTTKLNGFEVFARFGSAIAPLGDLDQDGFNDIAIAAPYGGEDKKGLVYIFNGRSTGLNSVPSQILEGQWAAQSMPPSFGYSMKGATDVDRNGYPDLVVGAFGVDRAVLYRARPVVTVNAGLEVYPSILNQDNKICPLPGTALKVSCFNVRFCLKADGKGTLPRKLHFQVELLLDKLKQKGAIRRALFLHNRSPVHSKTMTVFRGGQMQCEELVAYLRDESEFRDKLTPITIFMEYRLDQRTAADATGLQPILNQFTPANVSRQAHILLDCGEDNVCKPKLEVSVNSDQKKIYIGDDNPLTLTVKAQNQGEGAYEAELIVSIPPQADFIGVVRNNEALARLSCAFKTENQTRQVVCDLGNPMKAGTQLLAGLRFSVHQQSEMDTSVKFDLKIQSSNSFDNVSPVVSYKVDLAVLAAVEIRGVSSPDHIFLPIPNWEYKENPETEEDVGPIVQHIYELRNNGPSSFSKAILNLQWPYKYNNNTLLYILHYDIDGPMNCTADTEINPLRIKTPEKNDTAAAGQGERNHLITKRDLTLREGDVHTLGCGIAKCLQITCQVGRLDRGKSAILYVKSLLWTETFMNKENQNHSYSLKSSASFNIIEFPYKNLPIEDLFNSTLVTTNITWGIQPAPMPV
Sequence of recombinant mouse integrin αvβ3 (R&D Systems, 7889-AV-050) (mouse) (O54890 26-717 limits assumed, chain 2 of 2, further chain): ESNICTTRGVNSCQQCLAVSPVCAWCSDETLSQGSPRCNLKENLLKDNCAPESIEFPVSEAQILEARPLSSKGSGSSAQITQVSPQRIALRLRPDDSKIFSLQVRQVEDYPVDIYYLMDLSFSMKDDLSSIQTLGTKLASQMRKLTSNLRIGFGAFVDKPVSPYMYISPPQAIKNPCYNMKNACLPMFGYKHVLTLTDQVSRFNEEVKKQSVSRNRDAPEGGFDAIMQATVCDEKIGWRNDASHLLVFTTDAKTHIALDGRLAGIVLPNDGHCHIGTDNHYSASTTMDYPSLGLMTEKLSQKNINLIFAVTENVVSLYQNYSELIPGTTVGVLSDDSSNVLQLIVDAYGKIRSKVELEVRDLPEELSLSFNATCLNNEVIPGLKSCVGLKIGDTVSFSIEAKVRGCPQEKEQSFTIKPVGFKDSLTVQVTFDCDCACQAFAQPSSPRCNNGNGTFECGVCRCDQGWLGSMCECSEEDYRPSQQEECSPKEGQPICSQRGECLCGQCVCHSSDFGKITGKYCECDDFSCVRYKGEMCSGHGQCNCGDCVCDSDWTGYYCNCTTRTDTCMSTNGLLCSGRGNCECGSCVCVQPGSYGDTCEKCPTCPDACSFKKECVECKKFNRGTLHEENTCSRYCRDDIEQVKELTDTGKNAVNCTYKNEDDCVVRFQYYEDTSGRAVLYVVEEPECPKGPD

Consider “RGD-mutated mouse ICOSL protein (RGD motif replaced with AAA) (from UniProt Q9JHJ8 44-322) (ligand)”, for which the Kd worked out at 830 µM.

The values are drawn from patent US20210208163A1.
